This is an account of results in the nanobody polyreactivity screen of Harvey et al. (2022).

A short description of the series: yeast display, Sf9 membrane polyspecificity reagent, FACS + sequencing; frameworks hold sequencing errors. In short, it runs like this:
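After 36–48 hours of galactose induction, yeast (Saccharomyces cerevisiae BJ5465) displaying a synthetic nanobody library were stained at 4 °C for 1 hour with 10% biotinylated, detergent-solubilized Sf9 membrane reagent. Streptavidin microbeads enriched the stained cells before FACS sorting into low and high (top ~1%) gates on anti-HA and streptavidin fluorescence. Each clone's polyreactivity label reflects its gate of origin.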
Take “QVQLVETGGGLVQAGGSLRLSCAASGLTFDENAMGWYRQAPGINYSGASTYYADSVKGRFTISRDNAKNTVYLQMNSLKPEDTAVYYCAAEVVAQMNYWGQGTQVTVSS”: the “polyreactivity (PSR sort gate)” value is listed as “low polyreactivity”.
Consider “QVQLVETGGGLVQAGGSLRLSCAASGNIFRAYPMGWYRQAPGKERELVARINSGAITNYADSVKGRFTISRDNAKNTVYLQMNSLKPDDTAVYYCARDTQYPYYFLMDYWGQGTQVTVSS”, for which the “polyreactivity (PSR sort gate)” value is on record as “low polyreactivity”.
“QVQLVETGGGLVQAGGSLRLSCAASGPTFYANAKGWYRQAPGKERELVAVISWGSGSTYYADSVKGRFTISRDNAKNTVYLQMNSLKPEDTAVYYCAKSFYYEGTGDYWGQGTQVTVSS”: the “polyreactivity (PSR sort gate)” value is listed as “low polyreactivity”.
Take “QVQLVETGGGLVQAGGSLRLSCAASGRIFGSYAMGWYRQAPGKERELVASIRSGGRTKYADSVKGRFTISRDNAKNTVYFQMNSLKPEDTAVYYCAVPIEWDYGYWGQGTQVTVSS”: the “polyreactivity (PSR sort gate)” value is on record as “low polyreactivity”.
In the case of “QVQLVETGGGLVQAGGSLRLSCAASGRIFHLYAMGWYRQAPGKERELVAAITFSGGSTYYADSVKGRFTISRDTAKNTVYLQMNSLKPEDTAVYYCAKRSFYWFSSRLPFKYDYWGQGTQVTVSS” it was “low polyreactivity”.
The result for “QVQLVETGGGLVQAGGSLRLSCAASGRNYTYTMGWYRQAPGKERELVAAITYSGGSTYYADSVKGRFTISRDNAKNTVYLQMNSLKPEDTAVYYCAAVGRWPRYYYWGQGTQVTVSS” reads “high polyreactivity”; that for “QVQLVETGGGLVQAGGSLRLSCAASGRPFHRYALGWYRQAPGKDRALGAAISRGGITYYADSVKGRFTISRDNAKNTVYLQMNSLKPEDTAVYYCAALYRYYHESSPFDYWGQGTQVTVSS”, “high polyreactivity”.
The result for “QVQLVETGGGLVQAGGSLRLSCAASGRTFDPNAMGWYRQAPGKERELVAAIDWTGGRTYYADSVKGRFTISRDNAKNTVYLQMNSLKPEDTAVYYCAARYYRFRSSRDYWGQGTQVTVSS” reads “high polyreactivity”; that for “QVQLVETGGGLVQAGGSLRLSCAASGRTFEGNAMGWYRQAPGKERELVAAISGSGGRTYYADSVKGRFTISRDNAKYTVYLQMNSLKPEDTAVYYETLYSVYNPRRFNYWGQGTQVTVSS”, “high polyreactivity”; that for “QVQLVETGGGLVQAGGSLRLSCAASGRTFGIYAMGWYRQAPGKERELVAANTGRGGSTHYADSVKGRFTISRDNAKNTVYLQMNSLKPEDTEVYYGAADYRYNRGITSNKDYDYWGQGTQVTVSS”, “low polyreactivity”.
For the sequence “QVQLVETGGGLVQAGGSLRLSCAASGRTFVYNGMGWYRQAPGKERELVAAISGSGGSTYYADSVKGRFTISRDNAKNTVYLQMNSLKPEDTAVYYCATRQGYRLYYWGQGTQVTVSS”, the “polyreactivity (PSR sort gate)” value was “high polyreactivity”.
With “QVQLVETGGGLVQAGGSLRLSCAASGRTLWSYVMGWYIQAPGKERELVAAITSGGTTYYADSVKGRFTISRDNAKNTFYFQMNSLKPEDTAVYSCNVYTKFVYAYDYWGQGTQVTVSS”, the “polyreactivity (PSR sort gate)” value was “high polyreactivity”.
In the case of “QVQLVETGGGLVQAGGSLRLSCAASGSIFFDYAKGWSRQAPGKERELVAAIRWSGGRTSYADSVKGRFTISRDNAKNSVYLQMNSVKPEDTAVYYCSARWNRVRYGFDYWGQGTQVTVSS” it was “high polyreactivity”.
The result for “QVQLVETGGGLVQAGGSLRLSCAASGSIFLYYAMGWYRQAHGKERELVAAITSGGSTNYADSVKGRFTISRDNAKNTVYLQMNSLKPEDTAVYYCAARHPYRFWGQGTKVTVSS” reads “high polyreactivity”; that for “QVQLVETGGGLVQAGGSLRLSCAASGSIFVTNAMGWYRQPPGKEREFVAAISSSDDSTYYADSVKGRFTISRDNAKNTVYLQMHSLKPEDTAVYYCASDWLFNIIAYDYGLDSWGQGTQVTVSS”, “low polyreactivity”; that for “QVQLVETGGGLVQAGGSLRLSCAASGSTFRYYAMGWYRQAPGTERELVAGISSNGGRTYYADSVKWRFTISRDNAKNTVYLQMNILKPEDTAVYYCNAGPYSRLYGDRDYDYWGQGTQVTVSS”, “high polyreactivity”.
In the case of “QVQLVETGGGLVQAGGSLRLSCAASGSTFVYNAMGWYRPAPGNERELVAAITNSGSTYYADSVKGRFTISRDNAKNTVYLQMNSLKPEDTAVYDCAARSRVYWARSGYWGQGTQVTVSS” it was “low polyreactivity”.
Consider “QVQLVETGGGLVQAGGSLRLSCAASGSTFYYNAMGWYRQAPGKERELVARITRSGGSTYADSVKGRFTISRDNAKNSVYLQMNSLKPEVTAVYYWNADAYGTPEFTSYALRYDYWGQGTQVTVSS”, for which the “polyreactivity (PSR sort gate)” value is on record as “low polyreactivity”.
In the case of “QVQLVETGGGLVQAGGSLRLSCAASGYTFASNDMVWYRQAPGKERELVAAITKGGGRTYYADSVKGRFTISRDNAKNTVYLQMNRLKPEDTAVYFCAARQLIKYDYCGQGTQVTVSS” it was “low polyreactivity”.
The result for “QVQLVETGGGLVQAGGSLRLSCAASVRIIWGNAMGWYRQAPGTERELVAALRASGGSTHYADSVKGRFTISRDNAKKTVYFQINSLKPEDTAVYYCIAVKRVGAYWGRSFAYYYWGQGTQVTVSS” reads “high polyreactivity”; that for “QVQLVETGGGLVQAGGSLRLSCAAYGSIFIGYAMGWYRQAPGKERELVAAISNSGGRTYYADSVKGRFTISRDNAKNTVYLQMNSLKPEDTEVYYCNVDYRIPYRMDYWGQGTQVTVSS”, “high polyreactivity”.
In the case of “QVQLVETGGGLVQAGGSLRLSCADSGFIFRYYAMGRYRQAPGKERELVAAISSRGASTYYADSVKGRFTISRDNEKNTVYLQMNRLKPEDTAVYDCNARFNRASEMDYWGQGTQVTVSS” it was “high polyreactivity”; in that of “QVQLVETGGGLVQAGGSLRLSCAGSGSTFTSYVMGWYRQAPGKERELVAAITSSGGDTYYADSVKGRFTISRDNAKNTVYLQMNSLKPEVTAVYYCATRSYYRSSYYRNRYPYDYWGQGTQVTVSS”, “low polyreactivity”; in that of “QVQLVETGGGLVQAGGSLRLSCAPSGRTFYYYAMGWYRQAPGKERELVAAISYSVGSTYYADSVKGRFTISRDNAKTTVYLQMNSLKPEDTEVYYCAASRASSSRGEYYYWGQGTLVTVSS”, “low polyreactivity”.
“QVQLVETGGGLVQAGGSLRLSCASSGITFYRYGKGRYRQAPGKERELVAAITYNGGGTYYADSVKGRFTISRDNAKNTVYLQMNSLKPEDTAVYYCATLRPYAYPQYDSWGQGTQVTVSS”: the “polyreactivity (PSR sort gate)” value is listed as “high polyreactivity”.
In the case of “QVQLVETGGGLVQAGGSLRLSCASSGRTCVDNTMGWYRQEPGKESELVATITSGDSTNYEESVKGRFTISRDNAKYTVYLQMNSLKPEDTAVYYCAAVTNWYYYYTHRMEYWGQGTQVTVSS” it was “low polyreactivity”; in that of “QVQLVETGGGLVQAGGSLRLSCASSGSIFRAYAMGWYRQAPGNERELVAYISRSGGSTYYADSVKGRFTISRDNAKNTVYLQMNSLTQEDTAFYYCAAVFYLYSNLYGEYDYWGQGTQVTVSS”, “low polyreactivity”; in that of “QVQLVETGGGLVQAGGSLRLSCDASGRTFRIYGMGWYRQAPGKERELVAAISYSTGGTYYADSVKGRFTISRDNAKNTVYLQMTSLKPEDTAVYYCAAVVYAYLYADYDYWGQGTQVTVSS”, “low polyreactivity”.
Take “QVQLVETGGGLVQAGGSLRLSFGASGSTFSQYGMGLYRQAPGKVRELVAAIRRSGGRTYYADSVKGRFTISLDNAKNTVYLQMNSLKPEDTAVYYCAADEYRYYFYRPGIGYDYWGQGTQVTVSS”: the “polyreactivity (PSR sort gate)” value is “low polyreactivity”.
Consider “QVQLVETGGGLVQAGGSLRLSSAASGITFKWNDMGCYRQAPGKEREFVAAITGSTGSTFYADSVKGRFTISRDNAKNTVYLQMNSLKPEDTAVYYCAAGPWFYYWGQGTEVTVSS”, for which the “polyreactivity (PSR sort gate)” value is “low polyreactivity”.
The result for “QVQLVETGGGLVQAGGSLRLSSAASGRIFRNYTMGWYRQAPGKERELVAAISSSGGRTYYADSVKGRFTISRDNEKNTVYLQMNSLKPEDTAVYYCNTDGPTWYPTYDYWGQGTQVTVSS” reads “high polyreactivity”; that for “QVQLVETGGGLVQARGSLRLSCAASVSILYGNAMGWYRQAPGKERELVAAISRGGSTYYADSVKGRFTISRDNAKNTVYLQMNSLKPEDTAVYYCNALYTSYYRPSGMGYWGQGTQVTVSS”, “high polyreactivity”.
In the case of “QVQLVETGGGLVQSGGSLRLSCAASGSTFTYYAMGWYRQAPGKERELVAAIDFSGTSTYYADSVKGRFTISRDNAKNTVYLQMNCLKPEDTAVYFCAASQSLYWGGAHDNGEFGYWGQGTQVTVSS” it was “low polyreactivity”.
In the case of “QVQLVETGGLLVQAGGSLRLTCAGSGLIFYYYAMGCYRQAPGKERELVATISWYGGSTYADSVKGRFTISRDNAKNTVYLQMNSLKPEDPAVYYCAARYFVYYLEVDYWGQGTQVTVSS” it was “low polyreactivity”.
As for “QVQLVETGGRLVQAGGSLRLSCAASGFTFHQYTMGWYRQAPGKESELVAAITGTGDTYYADSVKGRFTISRDNAKNTVNLQMNSLKPEDTAVYYCAADWVTYWYYKGFYYWGQGTQVTVSS”, the “polyreactivity (PSR sort gate)” value is “high polyreactivity”.
The result for “QVQLVETGGVLVQAGGSLRLSCAASGRIFFYYVMGWYRQAPGKERELVAGITRGGITNYADSVKGRLTISRDNAKNTVYLQMNSLKPEDTAVYYCKARAPSYYRYRASAAYDYWGLGTQVTVSS” reads “high polyreactivity”.
The result for “QVQLVETGRGLFHAGGSLRLSCAASGGIFRVYAMGWYIPAPGKERELVAAISRSGSSTYYADSVKGRFTISRDNAKNTVYLQMNSLKPEDTAVYYCNAYSQYWLGNNYWGQGTQVTVSS” reads “high polyreactivity”; that for “QVQLVETGRGLVQAGGSLRLSCAASGSTFGSYAMGWYRPAPGKEREFVATISRSGGRTYYAASVKGRFTISRDNAKNTVYFQMNSLKPEDTAVYYCATDRRYWIGYDYWGQGTQVTVSS”, “high polyreactivity”.
As for “QVQLVETGVGLVQAGGSLRLSCAASGRIFKRNTMGWYRQAPGKEREFVASITFSGGSTNYADSVKGRFTISRDNAKNTVYLQMNSLKPEDTAVYYCAARDYHYSTYDYWGQGTQVTVSS”, the “polyreactivity (PSR sort gate)” value is “low polyreactivity”.
In the case of “QVQLVETGVGLVQAGGSLRLSCAASGRTFTTYAMGWYRQAPGKERELVAAITGSGGSTYYADSVNGRFTISRDNAKNTVYLQMNSLKPEDTAVYDCAKGYHQYAGFYYWGQGTQVTVSS” it was “high polyreactivity”.
In the case of “QVQLVETRGGLVQAGGSLRLSCAASGPIIRYYDMGCYRQAPGTERELVSASNAAGTSTYYADSVKGRFTISRDNAKNTVYLQMNSLKPEDTAVYYCAAQPYYGGGCYCYTRNYKLNYWGQGTQVTVSS” it was “high polyreactivity”.
